This is an account of results in publication PMC8089094, “Mispair-bound human MutS–MutL complex triggers DNA incisions and activates mismatch repair” (Cell Research, 2021).

Data set [1] has as its system LacI. The data set is described as follows: EMSA. The following applies: IPTG; EMSA: 10 mM HEPES pH 7.5, 110 mM KCl, 5 mM MgCl2, 1 mM DTT, 200 ug/mL BSA, 1 pmol cold homoduplex, +/- 2 mM ATP, 20 min on ice; sucrose gradient: 10 mM …. (A gel shift assay detects complexes by their altered migration in electrophoresis.)
Data set [2] deals with T1, human MutSα (MSH2·MSH6 heterodimer), wild type (human, UniProt P43246 1-934; P52701 1-1360).
T1 construct: MSH2 subunit of human MutSα; MSH6 subunit of human MutSα; also called WT MutSα; MSH2WT·MSH6WT; source: insect cells, purified to homogeneity
Kind of data set: native gel or EMSA; with ATP (2 mM); 0.1 pmol 32P-labeled 100-bp duplex with a G–T mismatch, 2 pmol MutSα or MutLα; more slowly migrating MutSα–MutLα–DNA complex; 10 mM HEPES pH 7.5, 5 mM MgCl2, 1 mM DTT, 110 mM KCl, 20 min on ice; 4% non-denaturing polyacrylamide. The following applies: both partners purified.

T1 sequence (P43246 whole entry, chain 1 of 2): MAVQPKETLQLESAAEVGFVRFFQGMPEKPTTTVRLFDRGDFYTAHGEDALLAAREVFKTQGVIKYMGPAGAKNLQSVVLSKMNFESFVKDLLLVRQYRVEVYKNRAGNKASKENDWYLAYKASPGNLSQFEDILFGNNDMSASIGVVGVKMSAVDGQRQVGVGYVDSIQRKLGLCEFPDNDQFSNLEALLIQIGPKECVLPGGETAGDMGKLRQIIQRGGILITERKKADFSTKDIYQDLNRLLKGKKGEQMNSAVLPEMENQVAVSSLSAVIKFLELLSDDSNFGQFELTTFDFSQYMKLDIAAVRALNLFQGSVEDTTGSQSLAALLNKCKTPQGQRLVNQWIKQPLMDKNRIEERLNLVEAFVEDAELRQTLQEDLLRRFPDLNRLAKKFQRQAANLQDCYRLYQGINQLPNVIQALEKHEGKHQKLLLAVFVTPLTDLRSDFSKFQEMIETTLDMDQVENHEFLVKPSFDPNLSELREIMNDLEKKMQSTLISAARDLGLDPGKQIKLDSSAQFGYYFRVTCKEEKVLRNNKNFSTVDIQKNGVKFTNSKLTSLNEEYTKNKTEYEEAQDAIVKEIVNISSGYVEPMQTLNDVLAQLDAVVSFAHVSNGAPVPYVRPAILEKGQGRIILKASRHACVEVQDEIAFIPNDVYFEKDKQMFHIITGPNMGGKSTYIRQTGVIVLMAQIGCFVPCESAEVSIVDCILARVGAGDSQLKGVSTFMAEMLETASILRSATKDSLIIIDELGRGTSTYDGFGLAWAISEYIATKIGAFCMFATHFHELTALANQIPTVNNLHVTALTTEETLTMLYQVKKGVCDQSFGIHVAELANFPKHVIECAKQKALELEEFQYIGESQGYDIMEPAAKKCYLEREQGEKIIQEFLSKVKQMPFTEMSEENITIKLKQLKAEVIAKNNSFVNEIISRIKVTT
T1 sequence (P52701 whole entry, chain 2 of 2): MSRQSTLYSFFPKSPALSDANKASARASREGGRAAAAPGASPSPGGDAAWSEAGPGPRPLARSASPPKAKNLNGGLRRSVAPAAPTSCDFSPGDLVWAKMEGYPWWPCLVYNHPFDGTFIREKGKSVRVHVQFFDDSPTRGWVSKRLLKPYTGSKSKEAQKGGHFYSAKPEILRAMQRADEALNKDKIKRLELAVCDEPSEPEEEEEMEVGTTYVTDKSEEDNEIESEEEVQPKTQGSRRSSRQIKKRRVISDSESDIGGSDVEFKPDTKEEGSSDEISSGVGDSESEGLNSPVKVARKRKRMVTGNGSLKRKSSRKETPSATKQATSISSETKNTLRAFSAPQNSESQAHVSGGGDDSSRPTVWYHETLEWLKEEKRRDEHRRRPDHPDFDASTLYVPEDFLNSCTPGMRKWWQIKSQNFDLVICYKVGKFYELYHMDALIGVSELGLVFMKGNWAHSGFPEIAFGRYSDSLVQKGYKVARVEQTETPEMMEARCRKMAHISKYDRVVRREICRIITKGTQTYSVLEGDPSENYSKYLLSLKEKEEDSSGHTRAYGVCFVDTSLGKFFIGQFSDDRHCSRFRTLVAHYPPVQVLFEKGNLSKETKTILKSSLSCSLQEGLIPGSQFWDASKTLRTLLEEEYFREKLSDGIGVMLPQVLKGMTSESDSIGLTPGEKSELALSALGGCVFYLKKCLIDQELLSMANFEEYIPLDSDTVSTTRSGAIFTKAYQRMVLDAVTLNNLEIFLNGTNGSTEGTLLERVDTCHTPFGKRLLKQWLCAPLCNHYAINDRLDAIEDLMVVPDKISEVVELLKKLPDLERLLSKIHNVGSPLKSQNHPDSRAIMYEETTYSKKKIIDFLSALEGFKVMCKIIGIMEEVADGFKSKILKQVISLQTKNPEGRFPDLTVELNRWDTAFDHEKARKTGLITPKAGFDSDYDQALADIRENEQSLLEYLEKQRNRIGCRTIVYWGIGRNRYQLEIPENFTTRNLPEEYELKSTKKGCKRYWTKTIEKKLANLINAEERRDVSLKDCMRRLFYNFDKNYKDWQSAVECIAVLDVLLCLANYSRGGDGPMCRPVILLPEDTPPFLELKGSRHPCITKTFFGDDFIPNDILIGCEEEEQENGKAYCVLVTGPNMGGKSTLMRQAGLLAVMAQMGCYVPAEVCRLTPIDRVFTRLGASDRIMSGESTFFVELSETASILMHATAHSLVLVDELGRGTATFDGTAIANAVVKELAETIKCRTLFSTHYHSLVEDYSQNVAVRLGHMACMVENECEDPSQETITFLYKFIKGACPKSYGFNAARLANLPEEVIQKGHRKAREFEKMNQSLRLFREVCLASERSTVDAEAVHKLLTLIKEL

Consider “282-bp G-T heteroduplex with LOS I and LOS II”, for which the binding signal (% of binding released) in data set [1] is more than 70.

B1: human MutLα (MLH1·PMS2 heterodimer), wild type (complex)
chain 1: MSFVAGVIRRLDETVVNRIAAGEVIQRPANAIKEMIENCLDAKSTSIQVIVKEGGLKLIQIQDNGTGIRKEDLDIVCERFTTSKLQSFEDLASISTYGFRGEALASISHVAHVTITTKTADGKCAYRASYSDGKLKAPPKPCAGNQGTQITVEDLFYNIATRRKALKNPSEEYGKILEVVGRYSVHNAGISFSVKKQGETVADVRTLPNASTVDNIRSIFGNAVSRELIEIGCEDKTLAFKMNGYISNANYSVKKCIFLLFINHRLVESTSLRKAIETVYAAYLPKNTHPFLYLSLEISPQNVDVNVHPTKHEVHFLHEESILERVQQHIESKLLGSNSSRMYFTQTLLPGLAGPSGEMVKSTTSLTSSSTSGSSDKVYAHQMVRTDSREQKLDAFLQPLSKPLSSQPQAIVTEDKTDISSGRARQQDEEMLELPAPAEVAAKNQSLEGDTTKGTSEMSEKRGPTSSNPRKRHREDSDVEMVEDDSRKEMTAACTPRRRIINLTSVLSLQEEINEQGHEVLREMLHNHSFVGCVNPQWALAQHQTKLYLLNTTKLSEELFYQILIYDFANFGVLRLSEPAPLFDLAMLALDSPESGWTEEDGPKEGLAEYIVEFLKKKAEMLADYFSLEIDEEGNLIGLPLLIDNYVPPLEGLPIFILRLATEVNWDEEKECFESLSKECAMFYSIRKQYISEESTLSGQQSEVPGSIPNSWKWTVEHIVYKALRSHILPPKHFTEDGNILQLANLPDLYKVFERC
chain 2: MERAESSSTEPAKAIKPIDRKSVHQICSGQVVLSLSTAVKELVENSLDAGATNIDLKLKDYGVDLIEVSDNGCGVEEENFEGLTLKHHTSKIQEFADLTQVETFGFRGEALSSLCALSDVTISTCHASAKVGTRLMFDHNGKIIQKTPYPRPRGTTVSVQQLFSTLPVRHKEFQRNIKKEYAKMVQVLHAYCIISAGIRVSCTNQLGQGKRQPVVCTGGSPSIKENIGSVFGQKQLQSLIPFVQLPPSDSVCEEYGLSCSDALHNLFYISGFISQCTHGVGRSSTDRQFFFINRRPCDPAKVCRLVNEVYHMYNRHQYPFVVLNISVDSECVDINVTPDKRQILLQEEKLLLAVLKTSLIGMFDSDVNKLNVSQQPLLDVEGNLIKMHAADLEKPMVEKQDQSPSLRTGEEKKDVSISRLREAFSLRHTTENKPHSPKTPEPRRSPLGQKRGMLSSSTSGAISDKGVLRPQKEAVSSSHGPSDPTDRAEVEKDSGHGSTSVDSEGFSIPDTGSHCSSEYAASSPGDRGSQEHVDSQEKAPKTDDSFSDVDCHSNQEDTGCKFRVLPQPTNLATPNTKRFKKEEILSSSDICQKLVNTQDMSASQVDVAVKINKKVVPLDFSMSSLAKRIKQLHHEAQQSEGEQNYRKFRAKICPGENQAAEDELRKEISKTMFAEMEIIGQFNLGFIITKLNEDIFIVDQHATDEKYNFEMLQQHTVLQGQRLIAPQTLNLTAVNEAVLIENLEIFRKNGFDFVIDENAPVTERAKLISLPTSKNWTFGPQDVDELIFMLSDSPGVMCRPSRVKQMFASRACRKSVMIGTALNTSEMKKLITHMGEMDHPWNCPHGRPTMRHIANLGVISQN
notes: MLH1 subunit of human MutLα; PMS2 subunit of human MutLα; also called WT MutLα; source: insect cells, purified to homogeneity
Regarding B1, the “stoichiometry N” value in data set [2] was > 1 molecule of MutLα in the MutSα–MutLα complex.
